Experimental data published in article PMC9284284.

Molecular target: T1, TCP4 DNA-binding domain (Arabidopsis thaliana, UniProt Q8LPR5 45-103)
T1 sequence: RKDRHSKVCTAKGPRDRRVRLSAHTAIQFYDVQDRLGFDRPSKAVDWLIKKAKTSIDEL
Experiment: EMSA

B1: SOC1-DNA (dsDNA)
DNA 1: TAATTAGTTTGTGTGGTCCTCCTCCCGATA
DNA 2: TATCGGGAGGAGGACCACACAAACTAATTA
binding result: binds
